Reference: article PMC10696123 (iScience, 2023)

Assays:
FleR 1-473 [1] = molecular target: FleR 1-473 (UniProt Q9I4N3); experiment: dynamic light scattering; conditions: reference: wild type FleRFL, acetyl phosphate treated; sites D53
FleR 1-473 [2] = molecular target: FleR 1-473 (UniProt Q9I4N3); experiment: small-angle X-ray scattering; conditions: reference: non-phosphorylated FleR D53A; sites D53
SAXS = molecular target: the molecule itself; experiment: SAXS
cross-linking = molecular target: the molecule itself; experiment: cross-linking

## FleR 1-473 (from UniProt Q9I4N3) FleR D53A, acetyl phosphate treated
FleR 1-473 [1]
  other: hydrodynamic diameter: weaker; reference 23.17 ± 0.58

## FleR 1-473 (from UniProt Q9I4N3) acetyl phosphate-phosphorylated FleR S150F
FleR 1-473 [2]
  other: SAXS molecular mass (Bayesian inference): stronger; reference 113650

B1: FleR D53A, non-phosphorylated, full length (natural protein, Pseudomonas aeruginosa (PAO1 strain), UniProt Q9I4N3 1-473, looked up)
chain: MAAKVLLVEDDRALREALSDTLLLGGHEFVAVDSAEAALPVLAREAFSLVISAVNMPGMDGHQLLGLIRTRYPHLPVLLMTAYGAVDRAVEAMRQGAADYLVKPFEARALLDLVARHALGQLPGSEEDGPVALEPASRQLLELAARVARSDSTVLISGESGTGKEVLANYIHQQSPRAGKPFIAINCAAIPDNMLEATLFGHEKGSFTGAIAAQPGKFELADGGTILLDEISEMPLGLQAKLLRVLQEREVERVGARKPINLDIRVLATTNRDLAAEVAAGRFREDLYYRLSVFPLAWRPLRERPADILPLAERLLRKHSRKMNLGAVALGPEAAQCLVRHAWPGNVRELDNAIQRALILQQGGLIQPADLCLTAPIGMPLAAPVPVPMPAMPPATPPSVEIPSPAAGQDASGALGDDLRRREFQVIIDTLRTERGRRKEAAERLGISPRTLRYKLAQMRDAGMDVEAYLYAI
SAXS
  stoichiometry N: 2

B2: FleR S150F, full length, phosphorylated with acetyl phosphate (natural protein, Pseudomonas aeruginosa (PAO1 strain), UniProt Q9I4N3 1-473, looked up)
chain: MAAKVLLVEDDRALREALSDTLLLGGHEFVAVDSAEAALPVLAREAFSLVISDVNMPGMDGHQLLGLIRTRYPHLPVLLMTAYGAVDRAVEAMRQGAADYLVKPFEARALLDLVARHALGQLPGSEEDGPVALEPASRQLLELAARVARFDSTVLISGESGTGKEVLANYIHQQSPRAGKPFIAINCAAIPDNMLEATLFGHEKGSFTGAIAAQPGKFELADGGTILLDEISEMPLGLQAKLLRVLQEREVERVGARKPINLDIRVLATTNRDLAAEVAAGRFREDLYYRLSVFPLAWRPLRERPADILPLAERLLRKHSRKMNLGAVALGPEAAQCLVRHAWPGNVRELDNAIQRALILQQGGLIQPADLCLTAPIGMPLAAPVPVPMPAMPPATPPSVEIPSPAAGQDASGALGDDLRRREFQVIIDTLRTERGRRKEAAERLGISPRTLRYKLAQMRDAGMDVEAYLYAI
modifications: phosphorylated by acetyl phosphate (site D53)
SAXS
  stoichiometry N: 7

B3: DNA-binding domain of FleR (FleRDBD, residues 412-473) (domain or fragment, Pseudomonas aeruginosa (PAO1 strain), UniProt Q9I4N3 412-473, looked up)
chain: SGALGDDLRRREFQVIIDTLRTERGRRKEAAERLGISPRTLRYKLAQMRDAGMDVEAYLYAI
cross-linking
  stoichiometry N: 2
